Results reported in US20070037210A1 (VALO HSJ LIMITED PARTNERSHIP, published 2007).
Non-standard residues stand in square brackets, D forms with d. No end group written: not given here.

How the values were obtained:
[1] = biological target: Insulin-like growth factor-1 receptor (IGF-1R) (human, UniProt P08069 31-1367); assay: cell-based or functional assay
[2] = biological target: T1, Interleukin-1 receptor accessory protein (IL-1RacP), on A549 carcinoma cells (human, UniProt Q9NPH3 21-570); assay: cell-based or functional assay
T1 sequence (looked up): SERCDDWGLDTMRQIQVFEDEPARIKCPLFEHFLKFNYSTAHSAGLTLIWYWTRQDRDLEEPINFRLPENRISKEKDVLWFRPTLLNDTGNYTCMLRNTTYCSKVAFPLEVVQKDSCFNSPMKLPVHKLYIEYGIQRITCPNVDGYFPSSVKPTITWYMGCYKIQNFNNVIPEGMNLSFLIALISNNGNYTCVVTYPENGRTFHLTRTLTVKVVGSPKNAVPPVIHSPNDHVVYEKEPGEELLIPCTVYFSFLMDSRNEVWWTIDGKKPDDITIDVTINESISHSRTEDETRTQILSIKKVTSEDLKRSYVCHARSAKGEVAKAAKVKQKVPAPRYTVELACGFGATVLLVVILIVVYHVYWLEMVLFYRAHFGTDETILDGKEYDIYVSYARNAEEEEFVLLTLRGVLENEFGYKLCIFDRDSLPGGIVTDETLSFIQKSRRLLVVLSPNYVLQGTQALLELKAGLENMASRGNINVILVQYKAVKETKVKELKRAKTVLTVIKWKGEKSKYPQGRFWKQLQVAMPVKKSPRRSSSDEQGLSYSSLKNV

Chain of Insulin-like growth factor-1 receptor (IGF-1R) (P08069 31-1367): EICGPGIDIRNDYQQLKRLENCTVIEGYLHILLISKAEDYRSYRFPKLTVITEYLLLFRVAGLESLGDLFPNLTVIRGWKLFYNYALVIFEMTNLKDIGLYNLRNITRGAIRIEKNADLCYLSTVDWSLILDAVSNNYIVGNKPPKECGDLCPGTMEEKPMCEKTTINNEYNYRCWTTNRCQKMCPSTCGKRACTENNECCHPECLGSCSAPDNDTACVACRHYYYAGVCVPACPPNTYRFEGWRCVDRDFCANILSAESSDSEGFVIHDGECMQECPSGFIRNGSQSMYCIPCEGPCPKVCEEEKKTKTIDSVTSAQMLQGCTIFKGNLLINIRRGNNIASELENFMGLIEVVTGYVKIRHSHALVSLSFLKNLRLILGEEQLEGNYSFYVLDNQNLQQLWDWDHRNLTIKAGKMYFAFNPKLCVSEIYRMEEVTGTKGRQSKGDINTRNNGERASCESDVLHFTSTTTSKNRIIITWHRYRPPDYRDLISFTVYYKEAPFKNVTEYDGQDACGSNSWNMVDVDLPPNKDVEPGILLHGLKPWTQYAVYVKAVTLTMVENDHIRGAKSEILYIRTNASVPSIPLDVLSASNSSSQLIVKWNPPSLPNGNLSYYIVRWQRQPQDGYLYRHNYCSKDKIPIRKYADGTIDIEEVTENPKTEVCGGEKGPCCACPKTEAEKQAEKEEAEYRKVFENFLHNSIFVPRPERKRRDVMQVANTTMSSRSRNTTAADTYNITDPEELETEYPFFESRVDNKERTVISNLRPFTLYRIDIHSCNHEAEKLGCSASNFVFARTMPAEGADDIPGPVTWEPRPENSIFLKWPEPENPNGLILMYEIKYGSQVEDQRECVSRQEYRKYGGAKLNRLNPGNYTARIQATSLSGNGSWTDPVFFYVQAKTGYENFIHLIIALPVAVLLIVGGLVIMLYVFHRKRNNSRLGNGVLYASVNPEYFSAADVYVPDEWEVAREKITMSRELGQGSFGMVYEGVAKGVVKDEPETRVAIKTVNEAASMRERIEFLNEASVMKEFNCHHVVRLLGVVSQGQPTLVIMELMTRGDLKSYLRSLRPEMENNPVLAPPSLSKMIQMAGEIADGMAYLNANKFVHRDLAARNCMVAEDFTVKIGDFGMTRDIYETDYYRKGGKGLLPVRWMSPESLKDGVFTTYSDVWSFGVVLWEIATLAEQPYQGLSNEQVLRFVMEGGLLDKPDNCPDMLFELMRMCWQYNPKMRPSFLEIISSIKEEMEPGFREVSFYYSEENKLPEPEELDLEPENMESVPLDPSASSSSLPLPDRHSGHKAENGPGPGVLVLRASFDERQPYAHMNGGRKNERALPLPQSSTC

B1: APG-204 (peptide)
peptide: [dL][dR][dK][dY][dA][dD]G[dT][dL]
- IGF-1 induced proliferation in A549 carcinoma cells, 3H-thymidine incorporation [1]: 10 nM

B2: APG-201 (peptide)
peptide: [dS][dL][dF][dV][dP][dR][dP][dE][dR][dK]
- IGF-1 induced proliferation in A549 carcinoma cells, 3H-thymidine incorporation [1]: 1000 nM

B3: APG-202 (peptide)
peptide: [dE][dS][dD][dV][dL][dH][dF][dT][dS][dT]
- IGF-1 induced proliferation in A549 carcinoma cells, 3H-thymidine incorporation [1]: 10 nM

B4: API-106 (peptide)
peptide: VGSPKNAVPPV
- IL-1 induced proliferation in A549 carcinoma cells, 3H-thymidine incorporation [2]: 10000 nM

B5: API-103 (peptide)
peptide: MKLPVHKLY
- IL-1 induced proliferation in A549 carcinoma cells, 3H-thymidine incorporation [2]: 1000 nM

B6: API-101 (peptide)
peptide: APRYTVELA
- IL-1 induced proliferation in A549 carcinoma cells, 3H-thymidine incorporation [2]: 1000 nM
